# Test results from patent US20040053349A1, “Direct selection of protein complexes relevant to physiological or diagnostic context of a biological specimen” (priority 2000, published 2004).
# B1: Ribonuclease A: enzyme preparation spiked into dialyzed serum sample (protein, UniProt P61823 27-150, looked up)
# Ribonuclease pancreatic: KETAAAKFERQHMDSSTSAASSSNYCNQMMKSRNLTKDRCKPVNTFVHESLADVQAVCSQKNVACKNGQTNCYQSYSTMSITDCRETGSSKYPNCAYKTTQANKHIIVACEGNPYVPVHFDASV
# System: trypsin
# Assay: Trypsin treatment of enzyme-spiked dialyzed human serum with or without ligand solutions, then residual enzyme activity assay
# Type: biochemical
# Conditions: for Relative residual activity [percent of untreated], LSA: LSA (ATP, XMP, CMP, NADP, NADPH) added before treatment with trypsin; for Relative residual activity [percent of untreated], LSA + LSB: LSA and LSB both added before treatment with trypsin; for Relative residual activity [percent of untreated], LSB: LSB (glucose, L-aspartic acid, D,L-asparagine, creatine, D,L-glyceraldehyde-3-P) added before treatment with trypsin
# Procedure: 2. Ligand solutions (LS) are composed as follows:
# One) ATP, XMP, CMP, NADP and NADPH are included in ligand solution LSA; and
# Two) Glucose, L-aspartic acid, D,L-asparagine, creatine, D,L-glyceraidehyde-3-P are included in ligand solution LSB.
# 2. The serum is treated with trypsin in the absence and presence of LSA or LSB, or both. At the end of the treatment samples are assayed for enzyme activity. For details see Table 1.
Molecule,"Relative residual activity [percent of untreated], LSA","Relative residual activity [percent of untreated], LSA + LSB","Relative residual activity [percent of untreated], LSB"
Asparaginase,9% of untreated,90% of untreated,89% of untreated
B1,93% of untreated,93% of untreated,11% of untreated
